Assay results from IntAct's records for PubMed 18809921.

B1: CCAAT/enhancer-binding protein beta (Homo sapiens), P17676 (parent)
chain: MQRLVAWDPACLPLPPPPPAFKSMEVANFYYEADCLAAAYGGKAAPAAPPAARPGPRPPAGELGSIGDHERAIDFSPYLEPLGAPQAPAPATATDTFEAAPPAPAPAPASSGQHHDFLSDLFSDDYGGKNCKKPAEYGYVSLGRLGAAKGALHPGCFAPLHPPPPPPPPPAELKAEPGFEPADCKRKEEAGAPGGGAGMAAGFPYALRAYLGYQAVPSGSSGSLSTSSSSSPPGTPSPADAKAPPTACYAGAAPAPSQVKSKAKKTVDKHSDEYKIRRERNNIAVRKSRDKAKMRNLETQHKVLELTAENERLQKKVEQLSRELSTLRNLFKQLPEPLLASSGHC

Variants of: B1
Conditions: with abc3g_human APOBEC3G

Row | Variant | effect of a mutation on the interaction
1 | S288A | decreasing interaction
